Test system: MS2 coat protein
Assay: apparent KD of MS2 coat protein; higher = weaker reporter binding
Settings: Eterna round: R107; input ligand: arginine 13.2 mM
In short: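 Titration buffer: 100 mM Tris-HCl pH 7.5, 80 mM KCl, 4 mM MgCl2, without or with constant ligand. Designed RNA switches transcribed on-chip from Illumina sequencing clusters received SNAP-549-labelled MS2 coat protein in twofold steps from 0.7 or 1.5 nM to 3 µM. Apparent KD is the median per design of fits to normalised cluster binding curves.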

Sequence | apparent KD of MS2 coat protein
CCUCGGGACCGAAGGAGCGAGAUAACAACAAUGGGUCUCUACACAUGAGGAUCACCCAUGUCUCAGGUAGGUCGCGGUACCUUAG [Exclusion Arginine B GF23] | 137 nM
AUGCUUGUCAGAAGGAGCGUCUUUAACAUGAGGAUCACCCAUGUAUCAUGGAAUUUGAUGAGACAGGUAGGUCGCUGAAUAGUAA [JR_SSArginiB_Sub021] | 30 nM
AUUAAUUGUCGUGAUACCAGACUUACAUGAGGAUCACCCAUGUUACUUAAGAUUUUUGUUGUCCCUUGGCAGCACUUUUUAAUUA [JR_Nu_ExcTheophyB_Sub024] | 24.5 nM
GUACAUGAGGAUCACCCAUGUAUAGUUGAAGGAGCGACCAGAGGGUCAGGUAGGUCGCAGCACAUGGCGUAAACCCGUGUAUGCC [#1 Exclusion - Arginine A Attempt #23 (Inspired by Pi)] | 20.4 nM
AUAAUGGGUAUCGGAUUAUCAUGAUAUGAUACCAGAUACUUAGAUAUCCCUUGGCAGCAUGAGGACAUGAGGAUCACCCAUGUAU [#04 Exclusion-TheophyllineA] | 32.1 nM
GGUUGAUGACAUGAGGAUCACCCAUGUAGGCGAGGACCGGUACGGCCGCCACUCGACAUGAGGAUCACCCAUGUCGGCGUCCGUG | 14.3 nM
AUAAGUAAUGUUACGUGUUUAAUUGCAGAUACCAGACUAUACGUUGUCCCUUGGCAGCUGAAUUACAUGAGGAUCACCCAUGUUG [JR_ExcTheophyA_Sub005] | 19.4 nM
CGAGUAGGUUCAAUCGAAUAACGGUUUUCGCGAGGACCGGUACGGCCGCCACUCGUGUGAUAUCACACAUGAGGAUCACCCAUGU [3'end-1] | 33.5 nM
AAAUAAAUAACUGAUACCAGUGUACUGACAUGAGGAUCACCCAUGUUGGGUUUGGUUGUACACCCUUGGCAGCAGAAAUAUAAAA [test (nupak] | 15.4 nM
GGAGCUACGUCGGCCGCCACUAGCGGGUAUUGCGUGUACAUGAGGAUCACCCAUGUAAUACGGCCUAGGACCGGGACGUAGCUCC [Raven] | 12.1 nM
GGUUACUCUACGGCCGCCACUGUAAUGUAAAGAUACCUGUACAUGACAUGAGGAUCACCCAUGUACAGGACCGGGUAGUGUAACC [Tryptophan B 17] | 144 nM
UUAUAAGUACCGGUCCUCAGAUCCUCAUGACGAGGACCGGUACGGCCGCCACUCGAAACAUGAGGAUCACCCAUGUAAUAACAUU [Brourdmod19] | 18.9 nM
AACGUAUACAGAAGGAGCGUGAUUUAUAUUACUCAUUCAUAUACAUGAGGAUCACCCAUGUCACAGGUAGGUCGCUGUAUUCGUA [JR_ExcArginiB_Sub021] | 76 nM
UCAUGCAGGUCGGCCGCCACUACACACAUGAGGAUCACCCAUGUAGUUACUGGGUGAAGUGGCAGUAGGACCGGGACCUGCACAC [Brourdmod17] | 155 nM
UGACAUUGCUCAGAUACCAGACAUGAGCAUCAGCCAUGUACCGAGAGUACAUGUUAAAGUGUCCCUUGGCAGCUGAGCAAUGUCU [Mod of Eli's TheoBX5 #AlternateMS2 v4] | 116 nM
UCAGUGCAAGGAAGGAGCGGGUACAUGAGGAUCACCCAUGUGCAAGUGGUGAGCGUUUGUGCCCAGGUAGGUCGCCUAGCCUGGU [XArg-B18] | 507 nM
UUGGGUUUGCGAAGGAGCGGGAAAUAUAUAUAUAUAAUCCUAACAUGAGGAUCACCCAUGUCCCAGGUAGGUCGCGCGGGUUUGG [12.M] | 42 nM
UUGCCCAGUACGGCCGCCACUGUGUGCAGGGAGCCCAGGUCCACAUGAGGAUCACCCAUGUACAACAGGACCGGGUACUUGCAAU [Usdizaqu] | 7.54 nM
AUCGUACCUCAUGAUACCAGCAUGUGAUCAUAACAUGAGGAUCACCCAUGUAAUCAGUGAUGCCCUUGGCAGCGUAGUCGAUACA [Same State - Theophylline B (Freestyle 8)] | 76.3 nM
GAUUUUACAAAAGUAAAAUCAGUGGGUGAACGAGGACCGGUACGGCCGCCACUCGGACAUGAGGAUCACCCAUGUCCAUGUGAAA [AstrosExyTryA#21] | 17.1 nM
AAGAUAAGUACUGAUACCAGAGACAUGAGGAUCACCCAUGUCAAAUAAUAAUACCUCAGACUCCCUUGGCAGCAGGAUAAAUGAG [Exclusion Theophylline B GF1] | 10.9 nM
CUCCCACUAUCUGAUACCAGAGGAUAAACGUAGACUGGGAACAUGAGGAUCACCCAUGUCCUCCCUUGGCAGCAGGACUUAUCUC [theeternabot_exclusion_MS2_Theo_B_29] | 22.2 nM
UUAAGAGGCUAUCAAAUUUGAUUUUGUGAUACCAGAAUAAUUUUAUUCCCUUGGCAGCAUGACAUGAGGAUCACCCAUGUGUCUU [SSTheo A #2] | 33.8 nM
AACCGAGGCUAUCCACAAAGAAAAUGUGAUACCAGAAUAAUUUUAUUCCCUUGGCAGCAUGACAUGAGGAUCACCCAUGUGUCUU [SSTheo A #5] | 29.7 nM
AGCGGCUCGAAAGAGUCGCACUCAUGUGAAGGAGCGCCCGUAAGGGCAGGUAGGUCGCACAUGAGGAUCACCCAUGUACCUUCUA [MAT - Exclusion Arginine A - Mod of Eli - D20] | 87.1 nM
CAAACAUGAGGAUCACCCAUGUAAUCAGAUACCAGUGACGAAAGUCACCCUUGGCAGCUGAUUACUUUAGUUCUAAGGUGUUUGA [EThA NP+V+V2 #5 +-Same Structure] | 53.6 nM
AAACGUUGCUCAGAUACCAGACAUGAGGAUCACCCAUGUACCAAGGUAACCGAAAGGCAUGUCCCUUGGCAGCUGAGCAACGAAA [MAT - Exclusion Theophlline B - Mod of Eli - D16] | 12.4 nM
AUACAUGAGGAUCACCCAUGUCAUUCAGAAGGAGCGUCAUUUUAGACAGGUAGGUCGCUGUUAUUGGUAUUAUACUUUAUGUUUA [JR_ExcArginiA_Sub024] | 20.1 nM

Same assay, conditions: Eterna round: R107; input ligand: none

Sequence | apparent KD of MS2 coat protein
CCUCGGGACCGAAGGAGCGAGAUAACAACAAUGGGUCUCUACACAUGAGGAUCACCCAUGUCUCAGGUAGGUCGCGGUACCUUAG [Exclusion Arginine B GF23] | 261 nM
AUGCUUGUCAGAAGGAGCGUCUUUAACAUGAGGAUCACCCAUGUAUCAUGGAAUUUGAUGAGACAGGUAGGUCGCUGAAUAGUAA [JR_SSArginiB_Sub021] | 29.8 nM
GUACAUGAGGAUCACCCAUGUAUAGUUGAAGGAGCGACCAGAGGGUCAGGUAGGUCGCAGCACAUGGCGUAAACCCGUGUAUGCC [#1 Exclusion - Arginine A Attempt #23 (Inspired by Pi)] | 21 nM
AACGUAUACAGAAGGAGCGUGAUUUAUAUUACUCAUUCAUAUACAUGAGGAUCACCCAUGUCACAGGUAGGUCGCUGUAUUCGUA [JR_ExcArginiB_Sub021] | 153 nM
UCAUGCAGGUCGGCCGCCACUACACACAUGAGGAUCACCCAUGUAGUUACUGGGUGAAGUGGCAGUAGGACCGGGACCUGCACAC [Brourdmod17] | 504 nM
UGACAUUGCUCAGAUACCAGACAUGAGCAUCAGCCAUGUACCGAGAGUACAUGUUAAAGUGUCCCUUGGCAGCUGAGCAAUGUCU [Mod of Eli's TheoBX5 #AlternateMS2 v4] | 328 nM
UCAGUGCAAGGAAGGAGCGGGUACAUGAGGAUCACCCAUGUGCAAGUGGUGAGCGUUUGUGCCCAGGUAGGUCGCCUAGCCUGGU [XArg-B18] | 125 nM
UUGGGUUUGCGAAGGAGCGGGAAAUAUAUAUAUAUAAUCCUAACAUGAGGAUCACCCAUGUCCCAGGUAGGUCGCGCGGGUUUGG [12.M] | 59.5 nM
GAUUUUACAAAAGUAAAAUCAGUGGGUGAACGAGGACCGGUACGGCCGCCACUCGGACAUGAGGAUCACCCAUGUCCAUGUGAAA [AstrosExyTryA#21] | 15.7 nM
AAGAUAAGUACUGAUACCAGAGACAUGAGGAUCACCCAUGUCAAAUAAUAAUACCUCAGACUCCCUUGGCAGCAGGAUAAAUGAG [Exclusion Theophylline B GF1] | 11.7 nM
AGCGGCUCGAAAGAGUCGCACUCAUGUGAAGGAGCGCCCGUAAGGGCAGGUAGGUCGCACAUGAGGAUCACCCAUGUACCUUCUA [MAT - Exclusion Arginine A - Mod of Eli - D20] | 205 nM
AUACAUGAGGAUCACCCAUGUCAUUCAGAAGGAGCGUCAUUUUAGACAGGUAGGUCGCUGUUAUUGGUAUUAUACUUUAUGUUUA [JR_ExcArginiA_Sub024] | 22.9 nM

Same assay, conditions: Eterna round: R107; input ligand: theophylline 20 uM

Sequence | apparent KD of MS2 coat protein
CCUCGGGACCGAAGGAGCGAGAUAACAACAAUGGGUCUCUACACAUGAGGAUCACCCAUGUCUCAGGUAGGUCGCGGUACCUUAG [Exclusion Arginine B GF23] | 287 nM
AUGCUUGUCAGAAGGAGCGUCUUUAACAUGAGGAUCACCCAUGUAUCAUGGAAUUUGAUGAGACAGGUAGGUCGCUGAAUAGUAA [JR_SSArginiB_Sub021] | 42.7 nM
AUUAAUUGUCGUGAUACCAGACUUACAUGAGGAUCACCCAUGUUACUUAAGAUUUUUGUUGUCCCUUGGCAGCACUUUUUAAUUA [JR_Nu_ExcTheophyB_Sub024] | 33 nM
GUACAUGAGGAUCACCCAUGUAUAGUUGAAGGAGCGACCAGAGGGUCAGGUAGGUCGCAGCACAUGGCGUAAACCCGUGUAUGCC [#1 Exclusion - Arginine A Attempt #23 (Inspired by Pi)] | 27.9 nM
AUAAUGGGUAUCGGAUUAUCAUGAUAUGAUACCAGAUACUUAGAUAUCCCUUGGCAGCAUGAGGACAUGAGGAUCACCCAUGUAU [#04 Exclusion-TheophyllineA] | 50.3 nM
GGUUGAUGACAUGAGGAUCACCCAUGUAGGCGAGGACCGGUACGGCCGCCACUCGACAUGAGGAUCACCCAUGUCGGCGUCCGUG | 19.9 nM
AUAAGUAAUGUUACGUGUUUAAUUGCAGAUACCAGACUAUACGUUGUCCCUUGGCAGCUGAAUUACAUGAGGAUCACCCAUGUUG [JR_ExcTheophyA_Sub005] | 28.5 nM
CGAGUAGGUUCAAUCGAAUAACGGUUUUCGCGAGGACCGGUACGGCCGCCACUCGUGUGAUAUCACACAUGAGGAUCACCCAUGU [3'end-1] | 49.2 nM
AAAUAAAUAACUGAUACCAGUGUACUGACAUGAGGAUCACCCAUGUUGGGUUUGGUUGUACACCCUUGGCAGCAGAAAUAUAAAA [test (nupak] | 20.6 nM
GGAGCUACGUCGGCCGCCACUAGCGGGUAUUGCGUGUACAUGAGGAUCACCCAUGUAAUACGGCCUAGGACCGGGACGUAGCUCC [Raven] | 19.1 nM
GGUUACUCUACGGCCGCCACUGUAAUGUAAAGAUACCUGUACAUGACAUGAGGAUCACCCAUGUACAGGACCGGGUAGUGUAACC [Tryptophan B 17] | 312 nM
UUAUAAGUACCGGUCCUCAGAUCCUCAUGACGAGGACCGGUACGGCCGCCACUCGAAACAUGAGGAUCACCCAUGUAAUAACAUU [Brourdmod19] | 28.8 nM
AACGUAUACAGAAGGAGCGUGAUUUAUAUUACUCAUUCAUAUACAUGAGGAUCACCCAUGUCACAGGUAGGUCGCUGUAUUCGUA [JR_ExcArginiB_Sub021] | 165 nM
UCAUGCAGGUCGGCCGCCACUACACACAUGAGGAUCACCCAUGUAGUUACUGGGUGAAGUGGCAGUAGGACCGGGACCUGCACAC [Brourdmod17] | 632 nM
UGACAUUGCUCAGAUACCAGACAUGAGCAUCAGCCAUGUACCGAGAGUACAUGUUAAAGUGUCCCUUGGCAGCUGAGCAAUGUCU [Mod of Eli's TheoBX5 #AlternateMS2 v4] | 640 nM
